The values that follow are results of earlier work, collected in PMC8959454.

The target of one data set is CKAP4 ECD (Homo sapiens) (UniProt Q07065).
In a further data set the target is LRP6 (Homo sapiens) (UniProt O75581).
Sequence of UniProt O75581 (O75581 20-1370): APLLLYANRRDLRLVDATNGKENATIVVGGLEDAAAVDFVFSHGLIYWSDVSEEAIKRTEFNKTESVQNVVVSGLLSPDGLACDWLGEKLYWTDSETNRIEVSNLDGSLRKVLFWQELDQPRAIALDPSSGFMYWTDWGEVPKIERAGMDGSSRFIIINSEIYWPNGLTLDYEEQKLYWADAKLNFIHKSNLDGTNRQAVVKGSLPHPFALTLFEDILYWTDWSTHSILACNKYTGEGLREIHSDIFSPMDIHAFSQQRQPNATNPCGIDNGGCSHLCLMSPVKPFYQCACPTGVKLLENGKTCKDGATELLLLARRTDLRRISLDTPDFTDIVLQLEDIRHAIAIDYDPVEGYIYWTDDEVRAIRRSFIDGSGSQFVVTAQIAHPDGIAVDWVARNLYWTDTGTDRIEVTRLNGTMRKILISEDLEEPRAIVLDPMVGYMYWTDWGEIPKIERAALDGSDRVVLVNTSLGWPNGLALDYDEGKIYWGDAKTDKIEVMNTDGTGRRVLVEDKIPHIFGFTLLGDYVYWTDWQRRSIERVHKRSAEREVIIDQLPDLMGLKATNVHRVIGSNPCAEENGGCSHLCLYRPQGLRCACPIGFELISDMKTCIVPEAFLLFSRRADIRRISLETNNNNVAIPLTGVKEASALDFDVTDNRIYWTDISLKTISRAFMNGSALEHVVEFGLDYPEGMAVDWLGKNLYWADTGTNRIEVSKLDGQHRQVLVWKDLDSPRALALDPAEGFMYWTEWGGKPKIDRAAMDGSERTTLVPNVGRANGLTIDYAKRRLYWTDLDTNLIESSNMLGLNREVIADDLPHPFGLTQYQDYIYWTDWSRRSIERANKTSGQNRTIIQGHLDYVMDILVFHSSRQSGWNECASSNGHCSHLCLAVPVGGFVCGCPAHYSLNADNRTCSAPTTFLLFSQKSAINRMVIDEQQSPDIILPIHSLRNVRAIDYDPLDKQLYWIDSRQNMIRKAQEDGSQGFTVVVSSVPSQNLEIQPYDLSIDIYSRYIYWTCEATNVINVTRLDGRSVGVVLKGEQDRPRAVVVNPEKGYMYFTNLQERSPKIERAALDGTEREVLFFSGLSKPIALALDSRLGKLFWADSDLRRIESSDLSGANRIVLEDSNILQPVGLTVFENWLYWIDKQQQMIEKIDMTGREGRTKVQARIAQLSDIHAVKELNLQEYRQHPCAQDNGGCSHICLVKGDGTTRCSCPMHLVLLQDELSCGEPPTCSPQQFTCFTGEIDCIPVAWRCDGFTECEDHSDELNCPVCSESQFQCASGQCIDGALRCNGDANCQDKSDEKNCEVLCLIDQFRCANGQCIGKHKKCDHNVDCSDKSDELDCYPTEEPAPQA

Sequence of UniProt Q07065 (Q07065 128-602): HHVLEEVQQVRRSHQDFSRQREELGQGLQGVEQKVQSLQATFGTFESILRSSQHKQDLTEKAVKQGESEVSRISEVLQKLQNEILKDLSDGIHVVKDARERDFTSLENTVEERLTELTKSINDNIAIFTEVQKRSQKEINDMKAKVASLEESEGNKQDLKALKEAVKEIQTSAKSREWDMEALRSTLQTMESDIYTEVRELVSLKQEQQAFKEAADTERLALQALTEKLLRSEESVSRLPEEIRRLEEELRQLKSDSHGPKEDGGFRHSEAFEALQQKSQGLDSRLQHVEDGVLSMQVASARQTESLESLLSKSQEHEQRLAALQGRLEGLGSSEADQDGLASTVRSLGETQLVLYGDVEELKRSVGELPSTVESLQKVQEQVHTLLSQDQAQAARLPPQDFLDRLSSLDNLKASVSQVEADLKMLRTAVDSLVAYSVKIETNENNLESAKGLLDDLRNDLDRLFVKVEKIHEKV

The term Kd denotes a measure of binding affinity in units of concentration. As for DKK1 (from UniProt O94907), the Kd with CKAP4 ECD (Homo sapiens) and with LRP6 (Homo sapiens) was 0.42 nM in each case.
